Measurements: patent US20040102388

Columns and labels:
[1] = target: FVII-RKR (UniProt P08709)
[2] = target: FVII-RKRRKR (UniProt P08709)
[3] = target: wild type FVII (human Factor VII) (UniProt P08709)
[4] = target: FVII-PRPSRKRR (UniProt P08709)
[5] = target: soluble Tissue factor

Factor Xa
FXa activation: conversion of single-chain zymogen to two-chain material (reducing gel) [1]: the single-chain zymogen protein in all but FVII-INS was nearly completely converted to two-chain material
FXa activation: conversion of single-chain zymogen to two-chain material (reducing gel) [2]: the single-chain zymogen protein in all but FVII-INS was nearly completely converted to two-chain material
FXa activation: conversion of single-chain zymogen to two-chain material (reducing gel) [3]: modified FVII, like wild type FVII, is autoactivated by (A) soluble Tissue factor (sTF) and (B) Factor Xa
FXa activation: conversion of single-chain zymogen to two-chain material (reducing gel) [4]: the single-chain zymogen protein in all but FVII-INS was nearly completely converted to two-chain material
FXa concentration giving complete cleavage of zymogen [4]: Addition of 1 µM FXa (i.e 50 fold higher than for the other FVIIa proteins) resulted in complete cleavage of zymogen FVII-INS

B1: FVII-PRPSRKRR (protein)
chain: ANAFLEELRPGSLERECKEEQCSFEEAREIFKDAERTKLFWISYSDGDQCASSPCQNGGSCKDQLQSYICFCLPAFEGRNCETHKDDQLICVNENGGCEQYCSDHTGTKRSCRCHEGYSLLADGVSCTPTVEYPCGKIPILEKRNASKPQGRPRPSRKRRIVGGKVCPKGECPWQVLLLVNGAQLCGGTLINTIWVVSAAHCFDKIKNWRNLIAVLGEHDLSEHDGDEQSRRVAQVIIPSTYVPGTTNHDIALLRLHQPVVLTDHVVPLCLPERTFSERTLAFVRFSLVSGWGQLLDRGATALELMVLNVPRLMTQDCLQQSRKVGDSPNITEYMFCAGYSDGSKDSCKGDSGGPHATHYRGTWYLTGIVSWGQGCATVGHFGVYTRVSQYIEWLQKLMRSEPRPGVLLRAPFP
autoactivation: cleavage of single-chain zymogen to two-chain FVIIa (reducing gel) [5]: all modified FVIIa contain single-chain material that can be cleaved

B2: wild type FVII (human Factor VII) (protein)
chain: ANAFLEELRPGSLERECKEEQCSFEEAREIFKDAERTKLFWISYSDGDQCASSPCQNGGSCKDQLQSYICFCLPAFEGRNCETHKDDQLICVNENGGCEQYCSDHTGTKRSCRCHEGYSLLADGVSCTPTVEYPCGKIPILEKRNASKPQGRIVGGKVCPKGECPWQVLLLVNGAQLCGGTLINTIWVVSAAHCFDKIKNWRNLIAVLGEHDLSEHDGDEQSRRVAQVIIPSTYVPGTTNHDIALLRLHQPVVLTDHVVPLCLPERTFSERTLAFVRFSLVSGWGQLLDRGATALELMVLNVPRLMTQDCLQQSRKVGDSPNITEYMFCAGYSDGSKDSCKGDSGGPHATHYRGTWYLTGIVSWGQGCATVGHFGVYTRVSQYIEWLQKLMRSEPRPGVLLRAPFP
autoactivation: cleavage of single-chain zymogen to two-chain FVIIa (reducing gel) [5]: single-chain protein (zymogen) in the FVII or the FVIIa preparations was cleaved to yield a two-chain material (FVIIa)

B3: FVII-RKRRKR (protein)
chain: ANAFLEELRPGSLERECKEEQCSFEEAREIFKDAERTKLFWISYSDGDQCASSPCQNGGSCKDQLQSYICFCLPAFEGRNCETHKDDQLICVNENGGCEQYCSDHTGTKRSCRCHEGYSLLADGVSCTPTVEYPCGKIPILEKRNASKPQGRRKRRKRRKRIVGGKVCPKGECPWQVLLLVNGAQLCGGTLINTIWVVSAAHCFDKIKNWRNLIAVLGEHDLSEHDGDEQSRRVAQVIIPSTYVPGTTNHDIALLRLHQPVVLTDHVVPLCLPERTFSERTLAFVRFSLVSGWGQLLDRGATALELMVLNVPRLMTQDCLQQSRKVGDSPNITEYMFCAGYSDGSKDSCKGDSGGPHATHYRGTWYLTGIVSWGQGCATVGHFGVYTRVSQYIEWLQKLMRSEPRPGVLLRAPFP
autoactivation: cleavage of single-chain zymogen to two-chain FVIIa (reducing gel) [5]: all modified FVIIa contain single-chain material that can be cleaved

B4: FVII-RKR (protein)
chain: ANAFLEELRPGSLERECKEEQCSFEEAREIFKDAERTKLFWISYSDGDQCASSPCQNGGSCKDQLQSYICFCLPAFEGRNCETHKDDQLICVNENGGCEQYCSDHTGTKRSCRCHEGYSLLADGVSCTPTVEYPCGKIPILEKRNASKPQGRRKRIVGGKVCPKGECPWQVLLLVNGAQLCGGTLINTIWVVSAAHCFDKIKNWRNLIAVLGEHDLSEHDGDEQSRRVAQVIIPSTYVPGTTNHDIALLRLHQPVVLTDHVVPLCLPERTFSERTLAFVRFSLVSGWGQLLDRGATALELMVLNVPRLMTQDCLQQSRKVGDSPNITEYMFCAGYSDGSKDSCKGDSGGPHATHYRGTWYLTGIVSWGQGCATVGHFGVYTRVSQYIEWLQKLMRSEPRPGVLLRAPFP
autoactivation: cleavage of single-chain zymogen to two-chain FVIIa (reducing gel) [5]: all modified FVIIa contain single-chain material that can be cleaved
